T1: IL-18 receptor (IL-18Rαβ) on cells (UniProt Q13478 19-541; O95256 20-599, limits assumed)
T1 sequence (looked up) 1: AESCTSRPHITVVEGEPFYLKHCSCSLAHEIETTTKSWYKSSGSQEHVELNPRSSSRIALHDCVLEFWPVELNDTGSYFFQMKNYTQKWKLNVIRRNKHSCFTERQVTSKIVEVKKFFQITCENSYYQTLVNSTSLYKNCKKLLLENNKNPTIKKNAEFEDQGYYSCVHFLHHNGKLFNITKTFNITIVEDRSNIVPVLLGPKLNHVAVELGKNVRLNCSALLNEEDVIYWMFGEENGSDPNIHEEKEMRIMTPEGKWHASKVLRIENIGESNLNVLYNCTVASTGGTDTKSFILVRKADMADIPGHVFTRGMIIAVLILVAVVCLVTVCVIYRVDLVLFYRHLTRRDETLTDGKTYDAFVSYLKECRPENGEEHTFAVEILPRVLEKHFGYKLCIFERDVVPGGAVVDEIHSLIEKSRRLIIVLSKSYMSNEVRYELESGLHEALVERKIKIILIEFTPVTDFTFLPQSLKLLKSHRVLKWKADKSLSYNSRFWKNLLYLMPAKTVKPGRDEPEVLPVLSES
T1 sequence (looked up) 2: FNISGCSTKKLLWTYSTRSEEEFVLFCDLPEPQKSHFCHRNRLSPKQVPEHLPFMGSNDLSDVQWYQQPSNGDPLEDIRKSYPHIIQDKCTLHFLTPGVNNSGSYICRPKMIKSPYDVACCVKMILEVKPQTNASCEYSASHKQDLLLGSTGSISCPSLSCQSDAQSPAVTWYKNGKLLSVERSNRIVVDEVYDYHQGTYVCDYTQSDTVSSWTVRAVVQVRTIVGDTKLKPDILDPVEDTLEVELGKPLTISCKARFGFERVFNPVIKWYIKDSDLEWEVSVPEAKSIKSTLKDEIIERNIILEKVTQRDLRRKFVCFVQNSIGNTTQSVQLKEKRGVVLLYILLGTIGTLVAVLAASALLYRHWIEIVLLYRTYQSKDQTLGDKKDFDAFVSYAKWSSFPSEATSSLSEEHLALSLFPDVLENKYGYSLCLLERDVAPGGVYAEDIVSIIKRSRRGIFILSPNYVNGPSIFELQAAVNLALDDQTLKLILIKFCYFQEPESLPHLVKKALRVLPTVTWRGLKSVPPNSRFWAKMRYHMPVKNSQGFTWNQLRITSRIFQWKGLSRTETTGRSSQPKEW


target: T1, IL-18 receptor (IL-18Rαβ) on cells; assay: cell-based or functional assay

| EC50 (pM), HEK-Blue IL-18R reporter assay | Binder |
| --- | --- |
| 2.5 pM | C140 (SEQ ID NO: 83; N-terminal 4xG, E6K, V11I, C38A, K53A, T63A, C76A, C127A) (ligand) GGGGYFGKLKSKLSIIRNLNDQVLFIDQGNRPLFEDMTDSDARDNAPRTIFIISMYADSQPRGMAVAISVKCEKISTLSAENKIISFKEMNPPDNIKDTKSDIIFFQRSVPGHDNKMQFESSSYEGYFLAAEKERDLFKLILKKEDELGDRSIMFTVQNED |
| 0.4 pM | C179 (E6K, K8E, V11I, C38A, K53A, T63A, C76A, Q103R, C127A) (ligand) YFGKLKSELSIIRNLNDQVLFIDQGNRPLFEDMTDSDARDNAPRTIFIISMYADSQPRGMAVAISVKCEKISTLSAENKIISFKEMNPPDNIKDTKSDIIFFRRSVPGHDNKMQFESSSYEGYFLAAEKERDLFKLILKKEDELGDRSIMFTVQNED |
| 0.02 pM | C142 (Y1M, E6K, V11I, C38A, K53A, T63A, C76A, C127A) (ligand) MFGKLKSKLSIIRNLNDQVLFIDQGNRPLFEDMTDSDARDNAPRTIFIISMYADSQPRGMAVAISVKCEKISTLSAENKIISFKEMNPPDNIKDTKSDIIFFQRSVPGHDNKMQFESSSYEGYFLAAEKERDLFKLILKKEDELGDRSIMFTVQNED |
| 0.26 pM | C178 (E6K, V11I, C38A, K53A, T63A, C76A, Q103R, C127A) (ligand) YFGKLKSKLSIIRNLNDQVLFIDQGNRPLFEDMTDSDARDNAPRTIFIISMYADSQPRGMAVAISVKCEKISTLSAENKIISFKEMNPPDNIKDTKSDIIFFRRSVPGHDNKMQFESSSYEGYFLAAEKERDLFKLILKKEDELGDRSIMFTVQNED |
| 0.07 pM | C176 (E6K, V11I, C38A, I49M, K53A, T63A, C76A, C127A) (ligand) YFGKLKSKLSIIRNLNDQVLFIDQGNRPLFEDMTDSDARDNAPRTIFIMSMYADSQPRGMAVAISVKCEKISTLSAENKIISFKEMNPPDNIKDTKSDIIFFQRSVPGHDNKMQFESSSYEGYFLAAEKERDLFKLILKKEDELGDRSIMFTVQNED |
| 3.73 pM | IL-18 polypeptide SEQ ID NO: 56 (E6K, K53A, C38S, C76S, C127S) (ligand) YFGKLKSKLSVIRNLNDQVLFIDQGNRPLFEDMTDSDSRDNAPRTIFIISMYADSQPRGMAVTISVKCEKISTLSSENKIISFKEMNPPDNIKDTKSDIIFFQRSVPGHDNKMQFESSSYEGYFLASEKERDLFKLILKKEDELGDRSIMFTVQNED |
| 0.04 pM | C177 (E6K, V11I, C38A, I49R, K53A, T63A, C76A, C127A) (ligand) YFGKLKSKLSIIRNLNDQVLFIDQGNRPLFEDMTDSDARDNAPRTIFIRSMYADSQPRGMAVAISVKCEKISTLSAENKIISFKEMNPPDNIKDTKSDIIFFQRSVPGHDNKMQFESSSYEGYFLAAEKERDLFKLILKKEDELGDRSIMFTVQNED |
| 0.08 pM | C182 (E6K, V11I, C38A, K53A, T63A, C76A, C127A, V153Y) (ligand) YFGKLKSKLSIIRNLNDQVLFIDQGNRPLFEDMTDSDARDNAPRTIFIISMYADSQPRGMAVAISVKCEKISTLSAENKIISFKEMNPPDNIKDTKSDIIFFQRSVPGHDNKMQFESSSYEGYFLAAEKERDLFKLILKKEDELGDRSIMFTYQNED |
| 0.1 pM | C183 (SEQ ID NO: 80; E6K, V11I, C38A, M51G, K53A, T63A, C76A, C127A) (ligand) YFGKLKSKLSIIRNLNDQVLFIDQGNRPLFEDMTDSDARDNAPRTIFIISGYADSQPRGMAVAISVKCEKISTLSAENKIISFKEMNPPDNIKDTKSDIIFFQRSVPGHDNKMQFESSSYEGYFLAAEKERDLFKLILKKEDELGDRSIMFTVQNED |
| 0.04 pM | C184 (E6R, V11I, C38A, K53A, T63A, C76A, C127A) (ligand) YFGKLRSKLSIIRNLNDQVLFIDQGNRPLFEDMTDSDARDNAPRTIFIISMYADSQPRGMAVAISVKCEKISTLSAENKIISFKEMNPPDNIKDTKSDIIFFQRSVPGHDNKMQFESSSYEGYFLAAEKERDLFKLILKKEDELGDRSIMFTVQNED |
| 0.29 pM | C174 (K8L, E6K, V11I, C38A, K53A, T63A, C76A, C127A) (ligand) YFGKLKSLLSIIRNLNDQVLFIDQGNRPLFEDMTDSDARDNAPRTIFIISMYADSQPRGMAVAISVKCEKISTLSAENKIISFKEMNPPDNIKDTKSDIIFFQRSVPGHDNKMQFESSSYEGYFLAAEKERDLFKLILKKEDELGDRSIMFTVQNED |
| 0.1 pM | C181 (E6K, V11I, C38A, K53A, T63A, C76A, C127A, V153E) (ligand) YFGKLKSKLSIIRNLNDQVLFIDQGNRPLFEDMTDSDARDNAPRTIFIISMYADSQPRGMAVAISVKCEKISTLSAENKIISFKEMNPPDNIKDTKSDIIFFQRSVPGHDNKMQFESSSYEGYFLAAEKERDLFKLILKKEDELGDRSIMFTEQNED |
| 1.68 pM | C141 (SEQ ID NO: 82; N-terminal G, E6K, V11I, C38A, K53A, T63A, C76A, C127A) (ligand) GYFGKLKSKLSIIRNLNDQVLFIDQGNRPLFEDMTDSDARDNAPRTIFIISMYADSQPRGMAVAISVKCEKISTLSAENKIISFKEMNPPDNIKDTKSDIIFFQRSVPGHDNKMQFESSSYEGYFLAAEKERDLFKLILKKEDELGDRSIMFTVQNED |
| 14 pM | C192 (SEQ ID NO: 81; N-terminal G, E6K, V11I, C38A, M51G, K53A, T63A, C76A, C127A) (ligand) GYFGKLKSKLSIIRNLNDQVLFIDQGNRPLFEDMTDSDARDNAPRTIFIISGYADSQPRGMAVAISVKCEKISTLSAENKIISFKEMNPPDNIKDTKSDIIFFQRSVPGHDNKMQFESSSYEGYFLAAEKERDLFKLILKKEDELGDRSIMFTVQNED |

target: T1, IL-18 receptor (IL-18Rαβ) on cells; assay: cell-based or functional assay; remark: another data set of the same source

| Binder | EC50 (nM), IFNγ induction, NK-92 cells |
| --- | --- |
| IL-18 polypeptide SEQ ID NO: 43 (E06K, K53A, S55A, Y01G) (ligand) GFGKLKSKLSVIRNLNDQVLFIDQGNRPLFEDMTDSDCRDNAPRTIFIISMYADAQPRGMAVTISVKCEKISTLSCENKIISFKEMNPPDNIKDTKSDIIFFQRSVPGHDNKMQFESSSYEGYFLACEKERDLFKLILKKEDELGDRSIMFTVQNED | 6.12 nM |
| IL-18 polypeptide SEQ ID NO: 6 (E6K, V11I, C38A, K53A, T63A, C68A, C76A, D98C, C127A) (ligand) YFGKLKSKLSIIRNLNDQVLFIDQGNRPLFEDMTDSDARDNAPRTIFIISMYADSQPRGMAVAISVKAEKISTLSAENKIISFKEMNPPDNIKDTKSCIIFFQRSVPGHDNKMQFESSSYEGYFLAAEKERDLFKLILKKEDELGDRSIMFTVQNED | 1.37 nM |

Second part, the binder after the results:

| EC50 (nM), IFNγ induction, NK-92 cells | Binder |
| --- | --- |
| 0.115 nM | IL-18 polypeptide SEQ ID NO: 47 (C38S, C68S, C76S, C127S) (ligand) YFGKLESKLSVIRNLNDQVLFIDQGNRPLFEDMTDSDSRDNAPRTIFIISMYKDSQPRGMAVTISVKSEKISTLSSENKIISFKEMNPPDNIKDTKSDIIFFQRSVPGHDNKMQFESSSYEGYFLASEKERDLFKLILKKEDELGDRSIMFTVQNED |
| 30 nM | IL-18 polypeptide SEQ ID NO: 45 (E06K, K53A, S55A, D54A) (ligand) YFGKLKSKLSVIRNLNDQVLFIDQGNRPLFEDMTDSDCRDNAPRTIFIISMYAAAQPRGMAVTISVKCEKISTLSCENKIISFKEMNPPDNIKDTKSDIIFFQRSVPGHDNKMQFESSSYEGYFLACEKERDLFKLILKKEDELGDRSIMFTVQNED |
| 17.2 nM | IL-18 polypeptide SEQ ID NO: 55 (K53A, T63A, C38S, C68S, C76S, C127S, K70C) (ligand) YFGKLESKLSVIRNLNDQVLFIDQGNRPLFEDMTDSDSRDNAPRTIFIISMYADSQPRGMAVAISVKSECISTLSSENKIISFKEMNPPDNIKDTKSDIIFFQRSVPGHDNKMQFESSSYEGYFLASEKERDLFKLILKKEDELGDRSIMFTVQNED |
| > 1000 nM | IL-18 polypeptide SEQ ID NO: 44 (E06K, K53A, S55A, F02A) (ligand) YAGKLKSKLSVIRNLNDQVLFIDQGNRPLFEDMTDSDCRDNAPRTIFIISMYADAQPRGMAVTISVKCEKISTLSCENKIISFKEMNPPDNIKDTKSDIIFFQRSVPGHDNKMQFESSSYEGYFLACEKERDLFKLILKKEDELGDRSIMFTVQNED |
| 0.488 nM | IL-18 polypeptide SEQ ID NO: 48 (C38S, C68S, C76S, C127S, K70C) (ligand) YFGKLESKLSVIRNLNDQVLFIDQGNRPLFEDMTDSDSRDNAPRTIFIISMYKDSQPRGMAVTISVKSECISTLSSENKIISFKEMNPPDNIKDTKSDIIFFQRSVPGHDNKMQFESSSYEGYFLASEKERDLFKLILKKEDELGDRSIMFTVQNED |
| 58.5 nM | IL-18 polypeptide SEQ ID NO: 49 (E06K, K53A, S55A, C38S, C68S, C76S, C127S, K70C) (ligand) YFGKLKSKLSVIRNLNDQVLFIDQGNRPLFEDMTDSDSRDNAPRTIFIISMYADAQPRGMAVTISVKSECISTLSSENKIISFKEMNPPDNIKDTKSDIIFFQRSVPGHDNKMQFESSSYEGYFLASEKERDLFKLILKKEDELGDRSIMFTVQNED |
| 7.4 nM | IL-18 polypeptide SEQ ID NO: 46 (E06K, K53A, S55A, M51G) (ligand) YFGKLKSKLSVIRNLNDQVLFIDQGNRPLFEDMTDSDCRDNAPRTIFIISGYADAQPRGMAVTISVKCEKISTLSCENKIISFKEMNPPDNIKDTKSDIIFFQRSVPGHDNKMQFESSSYEGYFLACEKERDLFKLILKKEDELGDRSIMFTVQNED |
